Assay in all cases: SPR
Assay [1] deals with T1, parasite-infected erythrocyte surface protein 15 (PIESP15), P. falciparum, recombinant ectodomain (P. falciparum, biotin (enzymatic monobiotinylation of the bait form)).
T1 chain: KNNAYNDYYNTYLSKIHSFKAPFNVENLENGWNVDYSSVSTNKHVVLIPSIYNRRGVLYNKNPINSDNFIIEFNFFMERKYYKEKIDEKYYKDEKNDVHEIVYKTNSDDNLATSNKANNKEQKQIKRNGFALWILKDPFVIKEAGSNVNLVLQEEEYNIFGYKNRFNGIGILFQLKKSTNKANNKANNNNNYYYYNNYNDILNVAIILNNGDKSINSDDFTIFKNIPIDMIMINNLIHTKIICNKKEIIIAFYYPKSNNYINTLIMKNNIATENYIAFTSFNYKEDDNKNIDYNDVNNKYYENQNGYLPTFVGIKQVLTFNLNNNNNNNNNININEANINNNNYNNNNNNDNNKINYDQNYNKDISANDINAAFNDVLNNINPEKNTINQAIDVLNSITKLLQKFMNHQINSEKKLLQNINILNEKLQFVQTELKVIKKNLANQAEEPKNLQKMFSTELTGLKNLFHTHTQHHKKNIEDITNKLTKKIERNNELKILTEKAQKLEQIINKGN

For assay [2], the target named is T2, PF3D7_0526900, P. falciparum p24 family protein, recombinant ectodomain (P. falciparum, biotin (enzymatic monobiotinylation of the bait form)).
T2 chain: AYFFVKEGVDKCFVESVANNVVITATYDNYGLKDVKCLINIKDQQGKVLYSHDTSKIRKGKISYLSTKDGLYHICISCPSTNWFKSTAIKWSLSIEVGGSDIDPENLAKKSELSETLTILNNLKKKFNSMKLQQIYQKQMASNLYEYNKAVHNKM

The target of assay [3] is T3, PF3D7_0721100, P. falciparum predicted secreted protein, recombinant (P. falciparum, biotin (enzymatic monobiotinylation)).
T3 chain: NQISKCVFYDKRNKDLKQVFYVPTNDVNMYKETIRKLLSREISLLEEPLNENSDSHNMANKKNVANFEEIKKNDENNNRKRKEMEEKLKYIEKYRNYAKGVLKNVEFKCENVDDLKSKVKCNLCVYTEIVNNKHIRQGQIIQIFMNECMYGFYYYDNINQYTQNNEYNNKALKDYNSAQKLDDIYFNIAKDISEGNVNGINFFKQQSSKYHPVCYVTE

B1: PF3D7_0702900, P. falciparum secreted protein with tandem EF-hand domains, recombinant (natural protein)
chain: QDNKNKVEETHEEQGEMTQEEKDEIYSEFVDYDLNKDGLIDAEEIVVTLKNMKKADFINFFNKVDLDSSGTISIDEYMLFINSN
modifications: biotin (enzymatic monobiotinylation of the bait form)
For orientation: koff means the rate constant with which the complex falls apart. Turning to B1, the koff in assay [1] stood at 0.035 s⁻¹.

B2: PF3D7_0422100, P. falciparum p24 family protein, recombinant ectodomain (domain or fragment)
chain: NFVLSNANTNNVNKNGANKKNNANNNNMNKAGDKKKATKGKKGNANDNVNEFNFNFNDLLNEINNAATNDNNNNNNDNNNDNNNNNNNNNNNYNGKNEINENNFNEEYNKLEKNFQMNAEDDDNNRGDINMDQFNEKKNNLNEDNNKMKPNANDYQYNENDADTDSEEDLTNIWNKNMQNFEPSTLLTFEIPSNSEEYLFEEVPEVNTYFRGVFYSNNEADDNIIEFLISDPDGQVIYKKEASEGIFYFYTKKVGIYTLTLKNNKWMGKKLTTVALGLGENPSLRSDHVKDFTNYIQRIVAETKKLKNEIKYLSSKHMRHIEKMKKITNK
modifications: biotin (enzymatic monobiotinylation of the bait form)
With B2, in assay [2], the koff amounted to 0.23 s⁻¹.

B3: CelTOS, P. falciparum, recombinant (natural protein)
chain: FRGNNGHNSASSLYNGAQFIEQLNNAFTSAFLESQSMNKIGDDLAETISNELVSVLQKNSPTFLESSFDIKSEVKKHAKSMLKELIKVGLPSFENLVAENVKPPKVDPATYGIIVPVLTSLFNKVETAVGAKVSDEIWNYNSPDVSESEESLSDDFFD
modifications: biotin (enzymatic monobiotinylation of the bait form)
Consider B3, for which, in assay [3], the koff is 0.025 s⁻¹.

The values above are taken from paper PMC7950211 (2021).
